Assay [1] deals with MCL-1, endogenous, in K562, HCT-116, SW620, MEWO and A375 cancer cells (Homo sapiens (Human)) (UniProt Q07820). Briefly: cell-based or functional assay.
In assay [2] the target is BCL-xL, endogenous, in K562, HCT-116, SW620, MEWO and A375 cancer cells (Homo sapiens (Human)) (UniProt Q07817). Briefly: cell-based or functional assay.
Assay [3] concerns the target T1, BFL-1 (1-151;C4S/C19S), biotinylated, with C-terminal biotinylation sequence (UniProt Q16548 1-151).
T1 construct: range 1-151; also called BFL-1 (A1)
T1 sequence: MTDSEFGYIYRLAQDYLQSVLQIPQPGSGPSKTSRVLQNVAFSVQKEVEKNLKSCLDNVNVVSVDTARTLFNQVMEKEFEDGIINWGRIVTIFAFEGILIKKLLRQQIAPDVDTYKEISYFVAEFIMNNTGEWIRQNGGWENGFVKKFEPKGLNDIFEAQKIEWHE
Briefly: SPR, biotinylated BFL-1 on CAP chip; target BFL-1. As for the experimental part:
(§1) SPR data were collected on an 8 K device (GE Healthcare). A Series S Biotin CAPture kit (GE Healthcare) was used to immobilize biotinylated anti-apoptotic BCL-2 proteins, and all experiments were conducted in HBS-EP+buffer solution (10 mM HEPES, 150 mM NaCl, 3 mM EDTA, 0.005% Surfactant P20; GE Healthcare). Biotinylated anti-apoptotic BCL-2 proteins were immobilized on the CAP chip until the response units reached 100. Serially diluted analytes were injected at a flow rate of 30 μl/min. Analytes were used at 20 nM for single concentration experiments. Dissociation constants (KD) and kinetic parameters (Kₐ and Kd) were estimated using Biacore 8 K evaluation software (GE Healthcare).

In assay [4] the target is T2, MCL-1 (172-321), biotinylated, with C-terminal biotinylation sequence (Homo sapiens (Human), UniProt Q07820 172-321). Briefly: SPR, ratio of KD values. As for the experimental part: as §1
For orientation: Surface plasmon resonance follows binding to a sensor surface in real time, without labels.

In assay [5] the target is T3, BCL-W (1-164), biotinylated, with C-terminal biotinylation sequence (UniProt Q92843 1-164).
T3 sequence: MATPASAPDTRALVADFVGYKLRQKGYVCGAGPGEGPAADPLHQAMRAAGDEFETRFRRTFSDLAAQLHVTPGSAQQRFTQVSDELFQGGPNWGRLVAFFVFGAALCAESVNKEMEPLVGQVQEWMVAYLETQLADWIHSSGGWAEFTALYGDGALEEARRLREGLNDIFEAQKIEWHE
Briefly: SPR, biotinylated BCL-W on CAP chip; target BCL-W. The method, then:
as §1

The target of assay [6] is T2, MCL-1 (172-321), biotinylated, with …. Briefly: SPR, biotinylated MCL-1 on CAP chip. The method, then: as §1
Assay [7] shares this target. Briefly: SPR, MCL-1 immobilized, analyte series from 5 to 320 nM. As for the experimental part:
as §1

Assay [8] concerns the target T4, BCL-xL (1-44:85-209), biotinylated, with C-terminal biotinylation sequence (Homo sapiens (Human), UniProt Q07817 1-209, biotin on the C-terminal biotinylation sequence … (co-expressed BirA)).
T4 construct: Form immobilised on the CAP chip for SPR; Any purification tag from pJK hTx is not described
The experiment in a line: SPR, BCL-xL immobilized, analyte series from 1.25 to 80 nM. As for the experimental part: as §1

Assay [9] addresses BCL-2 (1-34:chimeric loop:92-203), biotinylated, with C-terminal biotinylation sequence (UniProt P10415 1-34; P10415 92-203). The experiment in a line: SPR, biotinylated BCL-2 on CAP chip. As for the experimental part:
as §1

Assay [10] addresses T5, BCL-B (1-177;C30S/C138S), biotinylated, with C-terminal biotinylation sequence (UniProt Q9HD36 1-177).
T5 construct: range 1-177
T5 sequence: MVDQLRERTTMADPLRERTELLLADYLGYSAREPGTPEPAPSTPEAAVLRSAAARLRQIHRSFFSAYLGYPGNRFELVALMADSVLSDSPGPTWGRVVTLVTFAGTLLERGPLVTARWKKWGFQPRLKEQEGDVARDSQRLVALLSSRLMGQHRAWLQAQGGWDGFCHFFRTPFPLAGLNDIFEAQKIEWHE
Briefly: SPR, biotinylated BCL-B on CAP chip; target BCL-B. The method, then:
as §1

The target in assay [11] is T4, BCL-xL (1-44:85-209), biotinylated, …. Briefly: SPR, ratio of KD values. The method, then:
as §1

For assay [12], the target named is T6, MCL-1 (172-321) (Homo sapiens (Human), UniProt Q07820 172-321). Briefly: crystal structure. The method, then: Crystals were obtained by the hanging-drop vapor diffusion method at 20° C. […] The crystals were immersed briefly in a cryoprotectant solution. […] X-ray diffraction datasets were collected on beamline 5C at Pohang Accelerator Laboratory, South Korea. […] Then, automatic model building into the electron densities and structure refinement were performed using the PHENIX software suit. […] Iterative rounds of manual model building and refinement were carried out using the programs COOT and PHENIX. All structures were illustrated using the PYMOL software.

For assay [13], the target named is T4, BCL-xL (1-44:85-209), biotinylated, …. Briefly: SPR, biotinylated BCL-xL on CAP chip. The method, then: as §1
The target of assay [14] is T6, MCL-1 (172-321). The experiment in a line: size-exclusion chromatography (Superdex 75 Increase 10/300 GL), qualitative binding assay. (In general: In gel filtration, larger molecules generally elute earlier.)
Assay [15] concerns the target T4, BCL-xL (1-44:85-209), biotinylated, …. The experiment in a line: SPR, different analyte concentrations, biotinylated BCL-xL on CAP chip. As for the experimental part: as §1
Assay [16] has the same target. The experiment in a line: comparison of KD values (SPR).
Assay [17] deals with T2, MCL-1 (172-321), biotinylated, with …. The experiment in a line: comparison of KD values (SPR).

Where a chain is given by its changes, count along the chain named. In names and notes the source's numbering stands. Some results are limits rather than exact numbers.

These results are taken from patent US20240279284A1 (KOREA ADVANCED INSTITUTE OF SCIENCE AND TECHNOLOGY, published 2024).

Chain of BCL-xL, endogenous, in K562, HCT-116, SW620, MEWO and A375 cancer cells (Homo sapiens (Human)) (Q07817 whole entry): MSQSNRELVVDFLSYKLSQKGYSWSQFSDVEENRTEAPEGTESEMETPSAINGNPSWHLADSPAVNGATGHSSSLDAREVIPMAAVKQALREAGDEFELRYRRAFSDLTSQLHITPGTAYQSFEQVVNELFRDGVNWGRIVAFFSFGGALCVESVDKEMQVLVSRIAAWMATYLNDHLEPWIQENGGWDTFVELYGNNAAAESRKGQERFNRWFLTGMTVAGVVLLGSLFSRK
T4 sequence (Q07817 other isoform, or with tags, fused parts or gaps): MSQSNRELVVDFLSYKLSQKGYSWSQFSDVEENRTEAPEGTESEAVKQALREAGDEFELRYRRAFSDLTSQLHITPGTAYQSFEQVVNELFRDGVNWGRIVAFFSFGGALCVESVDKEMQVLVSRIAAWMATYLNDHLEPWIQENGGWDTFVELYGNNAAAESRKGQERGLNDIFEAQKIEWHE
T2 sequence (Q07820 other isoform, or with tags, fused parts or gaps): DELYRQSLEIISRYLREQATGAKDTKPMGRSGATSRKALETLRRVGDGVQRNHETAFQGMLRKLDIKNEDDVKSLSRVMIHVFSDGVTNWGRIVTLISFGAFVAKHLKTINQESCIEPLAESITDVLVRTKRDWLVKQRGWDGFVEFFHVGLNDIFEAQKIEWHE
T6 sequence (Q07820 172-321): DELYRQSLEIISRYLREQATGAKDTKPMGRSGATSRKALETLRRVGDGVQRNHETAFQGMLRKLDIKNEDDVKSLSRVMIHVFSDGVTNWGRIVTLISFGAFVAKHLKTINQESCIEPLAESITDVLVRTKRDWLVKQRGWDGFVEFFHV
Chain of BCL-2 (1-34:chimeric loop:92-203), biotinylated, with C-terminal biotinylation sequence (P10415 other isoform, or with tags, fused parts or gaps mutant): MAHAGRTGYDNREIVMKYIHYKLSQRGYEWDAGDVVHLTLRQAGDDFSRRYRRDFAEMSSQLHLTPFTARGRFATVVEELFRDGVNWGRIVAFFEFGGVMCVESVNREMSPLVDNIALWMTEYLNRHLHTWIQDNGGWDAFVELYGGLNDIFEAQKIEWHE

B1: 4H_αBM_3_CTS, 3×FLAG-tagged, expressed in cancer cell lines by lentivirus (designed binder, not shown: small tags and cut ends)
chain: MDAKKVAKKAAIQAARRITELAQVLVELLKEALKLDLTQEMRKKLIERYAAAIIRAIGDINNAIYQAKQEAEKLKKAGLVDSDQLDALLRALDELQKVASKAANQLGRLFEEALKRLDKDNGGEEEKDRTAKWFEFEARAIELALRLAAIGDVFDLEKEWRKLKPRMVILRLLRYIVRLVWRMH
On to B1, for which, in assay [1], the cell viability (WST-1), A375 cells amounted to 11%; the cell viability (WST-1), HCT-116 cells came out at 50%; the cell viability (WST-1), K562 cells amounted to 33%; the cell viability (WST-1), MEWO cells is 33%. This molecule displayed a cell viability (WST-1), SW620 cells in assay [1] of 27%. In assay [2], this molecule gave a cell viability (WST-1), A375 cells of 11%; a cell viability (WST-1), HCT-116 cells of 50%; a cell viability (WST-1), K562 cells of 33%; a cell viability (WST-1), MEWO cells of 33%. In assay [2], this molecule showed a cell viability (WST-1), SW620 cells of 27%.

B2: 4H_αBM_2 (I143L/I54E/G58E) (designed binder)
chain: MDAKKVAKKAAIQAARRITELAQVLVELLKEALKLDLTQEMRKKLIERYAAAIERAIEDINNAIYQAKQEAEKLKKAGLVDSDQLDALLRALDELQKVASKAANQLGRLFEEALKRLDKDNGGEEEKDRTAKWFEFEARAIELALRLAAIGDVFDLEKEWRKLK
notes: also called 4H_αBM_3 (I54E/G58E)
With B2, the Kd (as a rule, the free concentration of one partner at which half of the binding sites on the other are occupied at equilibrium, for simple one-to-one binding) in [3] worked out at 16.4 nM; in assay [5], 1.59 nM; in assay [6], 133 nM; in assay [7], 113 nM; in [8], 0.82 nM; in assay [9], 2.04 nM. In assay [10], this molecule yielded a Kd of 146 nM. For the same molecule, the “fold reduced affinity (against 4H_αBM_2 (I54E/G58E))” value in [4] was around 7 fold.

B3: 4H_αBM_2 (designed binder)
chain: B2 chain with E54I, E58G, L143I
As to B3, in assay [11], the “fold stronger binding than 4H_αBM_1” value turned out to be 40 fold. Further, in assay [12], the binding result was “binds”. Besides, in [13], the Kd is 0.21 nM.

B4: 4H_αBM_1 (designed binder)
chain: B2 chain with I12D, R16N, T19R, E54I, E58G, E142A, L143I, R146T
notes: also called D81
In the case of B4, the binding result in assay [14] is given as “binds”. The Kd in assay [15] was 8.57 nM.

B5: 4H_αBM_2 (I54E/G58E) (designed binder)
chain: B2 chain with L143I
notes: also called 4H_αBM_2 (154E/G58E)
As for B5, in assay [6], the affinity, expressed as Kd, was 19.2 nM.

B6: 4H_αBM_3 (designed binder)
chain: B2 chain with E54I, E58G
notes: also called 4H_αBM_2 (I143L)
For the molecule B6, the “fold higher binding affinity than human BIM BH3” value in assay [16] and in assay [17] was above 8 fold in each case.
